In a protein production outcome set (Wang et al. 2014):

Experiment: label from the status in PepcDB records

Sequence	protein production
MAENHCELLPPAPSGLGAGLGGGLCRRCSAGMGALAQRPGGVSKWVRLNVGGTYFLTTRQTLCRDPKSFLYRLCQADPDLDSDKDETGAYLIDRDPTYFGPVLNYLRHGKLVINKDLAEEGVLEEAEFYNITSLIKLVKDKIRERDSRISQMPVKHVYRVLQCQEEELTQMVSTMSDGWKFEQLVSIGSSYNYGNEDQAEFLCVVSKELHNTPYGTTSEPSEKAKILQERGSRM	not failed
MTNNSTKVCVLLATYNGTKWCLDQVKSILNQEDVNLEVFVSDDLSSDSTTDLLALLNDSRIHILASSYKFGSACQNFFRLVRDVDFSEYDYIAFADQDDLWNPNKLSYSIEQLNAHCADAFSSNVTAFWPDGRARLIVKDQPQREWDFLFESAGPGCTFVLTKKLACNLANFLHNNYEKTKGVALHDWFTYAFARSNSYSWWIDSQPTMMYRQHESNEFGVNSGVTAALSRFRKTSNGWYRNQVILIGDLVGAEDSWPIKRMRRFSLLDRMLLLFNVFAFRRSFRDRIALFFLLLLPQKKLEHHHHHH	not failed
GKIEEVVLGATKADGGTREYTVTLGGERSLAFYTFDAPQPHLPAIAIDVFDRRPMLAKAVRMHYEDVLDNPAEWARKCVKKFGADLVTLHLISTDPLLDDTPASEAVKVLEDVLQAVKCPIIVGGSGNKEKDPEVLEKAAEVAEGERIMLASATLDMDWERIANAAKKYGHVVLSWTQMDINNQKTLNRYLLKRVEMPRDSIVMDPTTAALGYGLDYAFTNMERIRISGLKGDTDLNFPISSGTTNAWGAREAWMVDSPIEEDTPWGPRELRGPIWEIITGLTLSLAGVDLFMMMHPVAVAVLKEVFNTLGGKVSGGVADPGEWIFME	failed
MAEISHPPMEQLQDLEYCIDSNPPWPETVLLAFQNYILMLGTSAFIPALLVPAMGGSDGDRARVIQTLLFVAGIKTLLQALFGTRLPAVVGGSLAYVVPIAYIINDSSLQKISNDHERFIHTMRAIQGALIVASSIQIILGYSQVWGLFSRFFSPLGMAPVVGLVGLGMFQRGFPQLGNCIEIGLPMLLLVIGLTQYLKHVRPFKDVPIFERFPILICVTIVWIYAVILTASGAYRGKPSLTQHSCRTDKANLISTAPWFKFPYPLQWGPPTFSVGHSFAMMSAVLVSMVESTGAYIAASRLAIATPPPAYVLSRGIGWQGIGVLLDGLFGTGTGSTVLVENVGLLGLTRVGSRRVVQVSAGFMIVFSTLGKFGAVFASIPVPIYAALHCILFGLVAAVGLSFLQFTNMNSMRNLMITGLSLFLGISIPQFFAQYWDARHYGLVHTNAGWFNAFLNTLFMSPATVGLIIAVFMDNTMEVERSKKDRGMPWWVKFRTFRGDNRNEEFYTLPFNLNRFFPPT	failed
MKEDKKLVKQARQNFRSNLKSARMHYRKEVRTLKQTVPKKGRFRKSAKNSLFQEKKTELKGNLLSSQKEAEEKFIKEITYVSPRLLKAKEIKNYRLPQAQERLRTARKHLSEVKLSEKQQVVNPKFTFQKENPSLKSRFQFHQEKSFDRLSAEKDVSSAKREVKQLKKVQKTKKNSTKVKAGLGLAASESLDLIAQEDDLDGLRTMKDTSLKARRYGRFTYQAGKVAVKSGQTGVRFTKTKFSHGKERFQNFKKGKGFTRQKPLKPRRRYQTFLNHVRKQSVAGFKGIVQAIKGSMTFFSVLAGNPLTWIVSGILLILLLMMSFFMSVSGSSVIQQDEIELSKSYTHMTWEDAEHTRTNDKGITFYTKIDEVMVYMNHQYQDYKLDDFIETSGTTYKEFLSQLWSDLNGGDSIKSMSDLYKEPAYKLSDEDQEELNELTEEGNYLALQELDNPFQGQTDEDSLSMTYRYGYEVIDEKPTLHHHIILEAKEGQVIVAPMDGKVSLDGENVVLTSGKGVNKTKLTLFGIHSGRVSENQQVLAGDIIGQTKDGTGLKVTYQKVDDDTDKLVYVNPAFYFPKVIQVQTTILPTIGQFGGDEFERAKAIYDYLKSKGATNQAIAAILGNWSVESSINPKRAEGDYLSPPVGATDSSWDDEGWLTLNGPTIYNGRYPNILKRGLGLGQWTDTADGSRRHTLLLEYAKGKHQKWYDLGLQLDFMLYGDSPYYTNWLKDFFKNSGSPASLAQLFLIYWEGNSGDKLLERQTRASEWYYQIEKGFSQPNGGTAQSDPKALEAVREDLFENSIPGGGDGMGYAYGQCTWGVAARINQLGLKLKGKNGEKIPIISTMGNGQDWVRTAASLGGETGTSPQEGAILSFAGGGHGTPTEYGHVAFVEKVYPDGSFLISETNYNGNPNYTFRKLSGVDSSLSFAYTTK	failed
MAVERPGYLRIAAELRKRISSGEFGIGDQIPTLPALAEEYGVLETTVRNALALLRNEGLIETRARAGTRVRERPPIHRLTADRYRNKAGVPSTPFTRDQGIGWSEYRLDKKYEQVEATMELAALFECEVGEPLLARHFVFHDNDQPTQMSVSYLRWSDVEGSPVADPIHEPWPGGTQAQLASIGIRVTEITESFTCGMPTDHESKTLKIGSGVPVLRYTRRHIAEDGRIVEVAHPIVRRGDTTVVDFVIKLD	failed
